Experimental data: the supplement of paper PMC12764529
± gives the half width of the 95% confidence interval.

Experiments:
[1] = folding stability dG unfold from trypsin proteolysis; higher = more stable
Summary of the method: (§1)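 Digests were run with trypsin and chymotrypsin at 11 concentrations in threefold dilutions, plus a no-protease condition, on designed mini-proteins in a PA-tagged cDNA display construct. The mini-proteins were under 80 residues, had no cysteine, and were kept only when AlphaFold2 dimer inter-PAE was above 15. After sequencing, Bayesian fitting of the counts gave K50, from which unfolding free energy was derived against a sequence-predicted unfolded-state K50 and a shared folded-state K50, per protease or combined.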

[2] = folding stability dG unfold from chymotrypsin proteolysis; higher = more stable
Summary of the method: as §1

[3] = folding stability dG unfold (combined trypsin and chymotrypsin); higher = more stable
Summary of the method: as §1

Sequence | folding stability dG unfold [1] [kcal/mol] | folding stability dG unfold [2] [kcal/mol] | folding stability dG unfold [3] [kcal/mol]
SAGGSAGGSAGGPEIELLEDVKPGEFVVIKVKLKDADGNEVTATFVFYNGEWYLTKIEPSAGGSAGGSAGGS [r10_288_TrROS_Hall] | 2.92 ± 0.14 | 4.73 ± 0.063 | 4.54 ± 0.2
SAGGSAGGSAGPFEGYRDKKGKYYLETPDGTKELDSEEELEEEKKRLLEEGIPINVKPSASAGGSAGGSAGG [r17_35_JUSTAS] | -0.308 ± 0.11 | 0.71 ± 0.14 | 0.458 ± 0.26
SAGGSAGGSAGGSKEIKVEVEEKDGKLTVTVTFPDGSKVEIEGMSAEEVEKLVKELAKKSAGGSAGGSAGGS [r4_383_TrROS_Hall] | 1.4 ± 0.061 | 2.36 ± 0.1 | 2.06 ± 0.061
SAGGSAGGSAPNLEVEEQRNPDGGMEMEIIRLKNDGLTIFFMEMRPDDKTMTMLMLMPLDASAGGSAGGSAG [r3_126_TrROS] | 2.19 ± 0.19 | 2.32 ± 0.13 | 2.48 ± 0.19
SAGGFIVVPIKAKSLEEALEKAREIAAALGIPGTLEDPRVDLDDFLKNYKPDTEVRVYVRHPDGVIDELSAG [r5_503_TrMRF] | 1.23 ± 0.033 | 0.223 ± 0.21 | 0.878 ± 0.11
SAGMTIVIGAPPELSLEEAVEKAIEAVEALFPDKLKPGSKIKVIVRVYDPETGSVDEVTVEIDVPPGALSAG [r5_916_TrMRF] | 3.35 ± 0.22 | 1.99 ± 0.11 | 2.65 ± 0.1
SAGGMKVEKNTIYIEVEKDMSAEEVAKKIAEELKKKGLKVEIKVEKKEDGTKVIRIKVDGKEIEIYASAGGS [r16_771_TrROS_Hall] | 1.84 ± 0.094 | 1.13 ± 0.18 | 1.51 ± 0.3
SAGGSAGGSADAVVVEVTLPGGGKARAVFFPDGSVVIVVDFPDGRRAVIFLENNEIVVLPVDSAGGSAGGSA [r18_285_TrMRF] | 3.73 ± 0.2 | 3.15 ± 0.19 | 3.63 ± 0.12
SAGGSAGDPSLPQPQYIAFLLVTKPGGVEEPLEVEVKTEEEAEKIAQEVRDAGYEVELELRPAALLSAGGSA [r15_906_JUSTAS] | 1.72 ± 0.16 | 0.945 ± 0.28 | 1.44 ± 0.38
SAGGSAGGSKKKVTINIVLTVKPGETLTLTVEITIDGKKYKVTKTLTYDPKTNKLVLTATVEPSAGGSAGGS [r12_136_TrROS_Hall] | 3.78 ± 0.32 | 5.03 ± 0.24 | 5.03 ± 0.29
SAGGSAGGSMKITINKWDPDNGNIMVTIQMPGQPVEIMIPWNNVDKLLEKLPFPGMKIDEIYPSAGGSAGGS [r12_23_TrROS] | 1.11 ± 0.1 | 0.718 ± 0.23 | 1.14 ± 0.23
SAGGSAGGSAGGIKPGEKPVYKVKIYNEETGEELEVEFKTLEELEKLKIPGVKKIEVEKVSAGGSAGGSAGG [r7_793_TrROS_Hall] | 0.786 ± 0.16 | 1.35 ± 0.045 | 1.2 ± 0.2
SAGGSAGGSALEVPSNYLVEVRFPNETRLIPVEDLDAFFEAYPDVPWTDIRVLDPKTGKPISAGGSAGGSAG [r3_134_TrMRF] | 2.47 ± 0.04 | 1.923 ± 0.0098 | 2.19 ± 0.032
SAKMVVLKAYFKGDGDEIKEIADAIDFPYTIEKIPDYPDYYIATFVFPTEEKAPEWEKALKEKGYIVEGSAG [r14_745_TrMRF] | 1.88 ± 0.04 | 2.48 ± 0.037 | 2.25 ± 0.049
SAGGSAGGSAPIKITEHTYNPGDGMVWATAEAEDPNGWKIKLTIWFFPDGNIQIEITEIVPSAGGSAGGSAG [r3_7_TrROS] | 2.45 ± 0.18 | 4.39 ± 0.14 | 3.83 ± 0.28
SAGGSAGGMVTVPVPKDKPLNPVATVKLPDGSTIPAGPVAVDLEKGTATLEVPEPAEVIVEVNPSAGGSAGG [r6_180_JUSTAS] | 0.0542 ± 0.08 | 1.36 ± 0.023 | 1.01 ± 0.037

Sequence | folding stability dG unfold [1] [kcal/mol] | folding stability dG unfold [2] [kcal/mol] | folding stability dG unfold [3] [kcal/mol]
SAGSVTVTETKTEGDKETITMTRPETGETVEEKITKKNGKVKVTKTYYSPSGVKLGSSEKVLSESELLLSAG [r5_308_JUSTAS] | -0.0129 ± 0.18 | -0.195 ± 0.33 | -0.0136 ± 0.26
SADHKFEIDINVFEHDGWRYIMIPVKYDDPQDVDEAAEKILREFGIPPNFNVNVMRSPNEVWINIRIPYSAG [r14_804_TrROS] | 2.08 ± 0.06 | 2.85 ± 0.077 | 2.53 ± 0.15
SAGGSAGGSNPRYRIVLPISREQLEELGLTPEQVAEAIREAFPSLSPDTRFYFPEDGNLVVVGSAGGSAGGS [r12_50_TrMRF] | 1.58 ± 0.024 | 1.16 ± 0.012 | 1.4 ± 0.026
SAGGGMTPVKKEYVVTLPVPPGMTEEEARELAERAAEELRPELEAKGLAYEVTFELSPEGLVTVTVVASAGG [r13_529_JUSTAS] | 2.19 ± 0.042 | 2.41 ± 0.025 | 2.31 ± 0.034
SAGGATIEIKELGRDEDTWYFLVTDPGSAEAVKDFIEKFIPPDYDAKIKILSVDPETGKVTALIEIPGSAGG [r13_491_TrMRF] | 2.23 ± 0.11 | 2.69 ± 0.14 | 2.64 ± 0.15
SYIKIPFNVWMPPDNAEAMAEEFANNLAQKHGWKIKGIKPVEPVPSPDGEWYPFRVSITIRMPDPEAINASA [r9_302_TrROS] | 1.62 ± 0.031 | 2.07 ± 0.13 | 1.82 ± 0.098
SMKDATSTSIGSRTYTYPNTDPSVSPEELKEKVIEEIKKEPELKAVEITVEVDPSTGTVTITINLTKLVKSA [r9_1001_JUSTAS] | 1.14 ± 0.021 | 1.76 ± 0.054 | 1.5 ± 0.077
SAGGSAGGSKKPPIYKIEIEIDGKKLTIEAKSKEEALKALKEELKKKYPNLKITKIKIEKVKPSAGGSAGGS [r12_429_TrROS_Hall] | 1.52 ± 0.088 | 2.4 ± 0.14 | 2.14 ± 0.15
SAGLIKIERTGDKLTITIPLKGAPPGAQVRIMVFTDGKVEEHWIPPGKEVEITIPPDNIHIFIQIYPPDSAG [r5_867_TrROS] | 3.22 ± 0.38 | 3.15 ± 0.14 | 3.33 ± 0.32
SAGGSAGGSGPMDDPVPPRFSVETSVSPVALPPEFVAYVAAHPEEVDAVYTTTVVVLEEGPAGSAGGSAGGS [r12_196_JUSTAS] | -0.559 ± 0.075 | -0.482 ± 0.79 | -0.449 ± 0.22
SAGGMEEILKKLGVKKGDKVKIKIKVEKDGKTETVEIEVPVENLEDILKKLGLSKDQVKITEIKVEKESAGG [r13_681_TrROS_Hall] | 2.17 ± 0.14 | 3.84 ± 0.1 | 3.4 ± 0.073
SAGGSAGGSAGGKPKIEIELTFIDEDGYAYRLRAEIEIDEDGNVHIEVEIEKVPLPEGLSAGGSAGGSAGGS [r10_563_TrROS_Hall] | 2.9 ± 0.14 | 3.28 ± 0.13 | 3.18 ± 0.21
KKEEEIKKLEEAVREALKKKGLEVKIVEVKKNKNGEYTLTIELKDGKKIEITIKKEKMTVEDILKKLKELLS [r1_279_TrROS_Hall] | 4.13 ± 0.23 | 4.04 ± 0.15 | 4.13 ± 0.18
SAGMKKPPPPTVTIKIRVNGKTITITVYPDGTVTVTFENGEKKTIKMTPEEVEKLLKELEKKGYEIELVSAG [r5_753_TrROS_Hall] | 2.51 ± 0.26 | 0.664 ± 0.33 | 1.49 ± 0.48
SAGGSAGGSMKVVKVELTLTGPGGEVTYLEEEIEVPEDELGEIEVSLPDENLSYEVTVEVIEESAGGSAGGS [r12_354_JUSTAS] | 0.444 ± 0.12 | 1.41 ± 0.071 | 1.12 ± 0.18
